According to the supplement of paper PMC7877785:
± gives the uncertainty stated by the source.

Test: self-splicing fitness, log relative to wild type (ln ratio); higher = more splicing; Tetrahymena group I intron in knt gene, E. coli kanamycin selection, DiMSum; sequences stand for … in CUCUCU…GGAGGGAAAAGUUAUCAGGCAUGCACCUGGUAGCUAGUCUUUAAACCAAUAGAUUGCAUCGGUUUAAAAGGCAAGACCGUCAAAUUGCGGGAAAGGGGUCAACAGCCGUUCAGUACCAAGUCUCAGGGGAAACUUUGAGAUGGCCUUGCAAAGGGUAUGGUAAUAAGCUGACGGACAUGGUCCUAACCACGCAGCCAAGUCCUAAGUCAACAGAUCUUCUGUUGAUAUGGAUGCAGUUCACAGACUAAAUGUCGGUCGGGGAAGAUGUAUUCUUCUCAUAAGAUAUAGUCGGACCUCUCCUUAAUGGGAGCUAGCGGAUGAAGUGAUGCAACACUGGAGCCGCUGGGAACUAAUUUGUAUGCGAAAGUAUAUUGAUUAGUUUUGGAGUACUCGUGGUCG
Method in brief: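 Six replicate transformations of E. coli BL21(DE3) with a pET-22b(+) library were grown overnight at 37°C or 30°C. The library randomised all eight P1ex-region intron nucleotides, the intron lying in the knt kanamycin-resistance gene, and plates were LB agar with or without 25 μg/mL kanamycin plus 100 μg/mL carbenicillin, 50 μM IPTG and 0.2% rhamnose. Pooled colonies were amplicon-sequenced on an Illumina HiSeq 2500, and fitness is the DiMSum error-weighted combination of wild-type-normalised replicate fold changes, kanamycin versus none.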

Sequence	self-splicing fitness (ln) (30 °C)	self-splicing fitness (ln) (37 °C)
CAGUAGCAAUAUUACGGAUG	-1.04 ± 0.099	-0.362 ± 0.12
CAACAGCAAUAUUACGCUAC	-4.32 ± 0.24	-2.3 ± 0.15
UUCAAGCAAUAUUACGCAUA	-1.24 ± 0.096	-0.0175 ± 0.1
UCGCAGCAAUAUUACGAUGU	-2.15 ± 0.18	-2.31 ± 0.28
GCUAAGCAAUAUUACGUUGU	-2.7 ± 0.11	-2.43 ± 0.13
CGUUAGCAAUAUUACGUGGU	-4.09 ± 0.26	-2.6 ± 0.28
UUACAGCAAUAUUACGACUU	-1.06 ± 0.11	-0.932 ± 0.11
GCUCAGCAAUAUUACGUUGA	-3.15 ± 0.18	-2.42 ± 0.2
AACAAGCAAUAUUACGCAUA	-1.8 ± 0.12	-1.04 ± 0.13
GUACAGCAAUAUUACGGAAA	-2.77 ± 0.22	-2.72 ± 0.25
UCACAGCAAUAUUACGGCGG	-0.848 ± 0.056	0.0491 ± 0.078
AUGGAGCAAUAUUACGGCAA	-0.0716 ± 0.34	-3.02 ± 0.47
CAAAAGCAAUAUUACGAUAC	-2.95 ± 0.15	-2.53 ± 0.2
ACUAAGCAAUAUUACGCAGA	-1.89 ± 0.092	-1.5 ± 0.083
AGGUAGCAAUAUUACGCCAG	-1.22 ± 0.02	-0.873 ± 0.037
UAUAAGCAAUAUUACGGCGU	-0.993 ± 0.093	-0.232 ± 0.12
GUUCAGCAAUAUUACGACCA	-0.964 ± 0.14	-0.856 ± 0.13
AGAGAGCAAUAUUACGAGGG	-3.58 ± 0.39	-2.35 ± 0.42
UCCUAGCAAUAUUACGGCAC	–	-2.14 ± 0.24
CUGAAGCAAUAUUACGCAUA	-3.91 ± 0.3	-2.57 ± 0.32
GCAGAGCAAUAUUACGUGCG	-2.76 ± 0.096	-0.667 ± 0.1
CUUUAGCAAUAUUACGAACG	0.602 ± 0.16	0.157 ± 0.19
CACUAGCAAUAUUACGCCUA	-3.31 ± 0.19	-2.36 ± 0.16
UGACAGCAAUAUUACGGGUG	-0.383 ± 0.052	-0.732 ± 0.074

Sequence	self-splicing fitness (ln) (30 °C)	self-splicing fitness (ln) (37 °C)
GGUAAGCAAUAUUACGAUAU	-0.847 ± 0.15	0.242 ± 0.2
CGAGAGCAAUAUUACGGUAA	-1.51 ± 0.25	-2.55 ± 0.28
GCCUAGCAAUAUUACGAUCC	-1.08 ± 0.093	0.0207 ± 0.13
ACGGAGCAAUAUUACGCGGG	-2.3 ± 0.18	-0.332 ± 0.15
ACUGAGCAAUAUUACGGGUU	-2.09 ± 0.1	-3.88 ± 0.28
GCCAAGCAAUAUUACGCUUA	-1.02 ± 0.086	-0.264 ± 0.11
CCCCAGCAAUAUUACGCGUU	-4.16 ± 0.17	-2.57 ± 0.19
CCCGAGCAAUAUUACGUAUG	-4.9 ± 0.45	-2 ± 0.19
UGCUAGCAAUAUUACGACUC	-2.59 ± 0.27	-0.141 ± 0.2
UACUAGCAAUAUUACGGUUU	-1.41 ± 0.1	-0.44 ± 0.12
ACGUAGCAAUAUUACGUAAU	-2.35 ± 0.13	-2.34 ± 0.15
AAAAAGCAAUAUUACGUUCU	-0.294 ± 0.066	-0.0468 ± 0.083
ACAUAGCAAUAUUACGCGCG	-0.8 ± 0.12	-0.126 ± 0.16
UCUCAGCAAUAUUACGUGGC	-3.61 ± 0.31	-2.55 ± 0.28
AAUAAGCAAUAUUACGCGCG	-0.258 ± 0.11	0.0567 ± 0.15
CACUAGCAAUAUUACGAGUU	-1.83 ± 0.085	-0.633 ± 0.093
GUGCAGCAAUAUUACGCGAC	-3.59 ± 0.34	-1.8 ± 0.2
GACUAGCAAUAUUACGUCGG	-3.55 ± 0.21	-3.32 ± 0.24
CGCCAGCAAUAUUACGCGCA	-1.98 ± 0.13	-0.948 ± 0.13
UAGCAGCAAUAUUACGAGUU	-3.47 ± 0.15	-1.98 ± 0.14
UAAGAGCAAUAUUACGCGCG	-1.38 ± 0.24	-1.35 ± 0.3
UAGUAGCAAUAUUACGUUGA	-2.34 ± 0.13	-1.54 ± 0.12
CACCAGCAAUAUUACGCCGA	-2.88 ± 0.19	-1.86 ± 0.21
UAUCAGCAAUAUUACGAAAC	–	-2.08 ± 0.32
